These results are taken from publication PMC11329664.

This assay has as its target Alexa Fluor 488-conjugated human CD40-CA-His12 (ectodomain of human CD40) (human). The experiment in a line: scanning fluorescence correlation spectroscopy with brightness-transit statistics (sFCS BTS); CD40-AF488-His tethered through Ni-NTA-DGS to a BSA-blocked supported lipid bilayer, titrated to higher surface densities (100 and 175 molecules/µm^2); brightness and transit time compared with the monomeric control AF488-His; 24 °C.

A word on the stoichiometry N: it is a count of units in the complex or per binding partner. Turning to “Alexa Fluor 488-conjugated human CD40-CA-His12 (ectodomain of human CD40) (domain or fragment)”, the stoichiometry N was greater than 2.
